Source: patent publication US20200002436A1 (DRAGONFLY THERAPEUTICS, published 2020)
Positions count from the first letter of the chain named.

T1: human recombinant NKG2D-Fc (human, UniProt P26718 73-216)
T1 construct: extracellular domain; also called recombinant human NKG2D-Fc; NKG2D-Fc fusion protein; not shown: human IgG1 Fc domain
T1 sequence (looked up): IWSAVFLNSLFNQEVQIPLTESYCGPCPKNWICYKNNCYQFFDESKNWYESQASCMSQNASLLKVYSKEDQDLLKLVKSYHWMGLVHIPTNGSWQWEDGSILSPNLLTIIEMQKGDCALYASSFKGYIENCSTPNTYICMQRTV

T2: mouse recombinant NKG2D-Fc (mouse; human, UniProt O54709 90-232)
T2 construct: extracellular domain; also called recombinant mouse NKG2D-Fc; Mouse NKG2D-Fc-biotin; not shown: human IgG1 Fc domain
T2 sequence (looked up): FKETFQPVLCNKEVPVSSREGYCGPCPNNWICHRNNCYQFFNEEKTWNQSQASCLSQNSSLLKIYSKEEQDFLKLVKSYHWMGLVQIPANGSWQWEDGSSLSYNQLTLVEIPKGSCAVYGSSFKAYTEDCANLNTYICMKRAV

T3: cynomolgus recombinant NKG2D-Fc (cynomolgus; human, UniProt P61252 73-216)
T3 construct: extracellular domain; also called cynomolgus NKG2D-Fc; not shown: human IgG1 Fc domain
T3 sequence (looked up): T1 sequence (looked up) with D43N, T133I

B1: ADI-27727 (antibody, V domains shown)
VH: QVQLVQSGAEVKKPGSSVKVSCKASGGTFSSYAISWVRQAPGQGLEWMGGIIPIFGTANYAQKFQGRVTITADESTSTAYMELSSLRSEDTAVYYCARGDSSIRHAYYYYGMDVWGQGTTVTVSS
VL: not shown
B2: ADI-29443 (antibody, V domains shown)
VH: QLQLQESGPGLVKPSETLSLTCTVSGGSISSSSYYWGWIRQPPGKGLEWIGSIYYSGSTYYNPSLKSRVTISVDTSKNQFSLKLSSVTAADTAVYYCARGSDRFHPYFDYWGQGTLVTVSS
VL: EIVLTQSPATLSLSPGERATLSCRASQSVSRYLAWYQQKPGQAPRLLIYDASNRATGIPARFSGSGSGTDFTLTISSLEPEDFAVYYCQQFDTWPPTFGGGTKVEIK
notes: also called F43
B3: ADI-27705 (antibody, V domains shown)
VH: QVQLQQWGAGLLKPSETLSLTCAVYGGSFSGYYWSWIRQPPGKGLEWIGEIDHSGSTNYNPSLKSRVTISVDTSKNQFSLKLSSVTAADTAVYYCARARGPWSFDPWGQGTLVTVSS
VL: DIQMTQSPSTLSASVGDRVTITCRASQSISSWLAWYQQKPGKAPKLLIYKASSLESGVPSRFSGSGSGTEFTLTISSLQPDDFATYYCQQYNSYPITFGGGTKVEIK
B4: ADI-27724 (antibody, V domains shown)
VH: B3 VH
VL: not shown
B5: ADI-29403 (antibody, V domains shown)
VH: B3 VH
VL: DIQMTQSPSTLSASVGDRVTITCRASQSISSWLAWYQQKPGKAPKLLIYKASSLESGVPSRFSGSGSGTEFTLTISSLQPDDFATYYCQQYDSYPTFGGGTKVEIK
B6: ADI-29405 (antibody, V domains shown)
VH: B3 VH
VL: DIQMTQSPSTLSASVGDRVTITCRASQSISSWLAWYQQKPGKAPKLLIYKASSLESGVPSRFSGSGSGTEFTLTISSLQPDDFATYYCQQYGSFPTFGGGTKVEIK
B7: ADI-29447 (antibody, V domains shown)
VH: B3 VH
VL: B6 VL with G92D, S93T, P95I
notes: also called F47
B8: ADI-29426 (antibody, V domains shown)
VH: B3 VH
VL: B6 VL with S30G, G92H
B9: ADI-27741 (antibody, V domains shown)
VH: B3 VH
VL: B6 VL with S30G, Y91S, G92N, F94Y, P95Y
B10: ADI-29429 (antibody, V domains shown)
VH: B3 VH
VL: DIQMTQSPSTLSASVGDRVTITCRASQSIGSWLAWYQQKPGKAPKLLIYKASSLESGVPSRFSGSGSGTEFTLTISSLQPDDFATYYCQQYELYSYTFGGGTKVEIK
B11: ADI-29404 (antibody, V domains shown)
VH: B3 VH
VL: B6 VL with Q89E, G92D, F94Y
notes: also called F04
B12: ADI-29399 (antibody, V domains shown)
VH: B3 VH
VL: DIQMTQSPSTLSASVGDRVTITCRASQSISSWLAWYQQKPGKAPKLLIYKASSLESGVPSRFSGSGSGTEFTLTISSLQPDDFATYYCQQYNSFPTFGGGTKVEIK
B13: ADI-29424 (antibody, V domains shown)
VH: B3 VH
VL: B6 VL with G92D, P95I
B14: ADI-27743 (antibody, V domains shown)
VH: B3 VH
VL: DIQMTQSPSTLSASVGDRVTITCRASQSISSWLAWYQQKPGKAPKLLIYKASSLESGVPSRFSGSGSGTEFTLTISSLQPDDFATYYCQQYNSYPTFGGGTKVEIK
B15: ADI-28226 (antibody, V domains shown)
VH: B3 VH
VL: B10 VL with G30S, E92G, L93S, Y94F, S95P, Y96I
notes: also called C26
B16: ADI-29407 (antibody, V domains shown)
VH: B3 VH
VL: B6 VL with G92Q
B17: ADI-29401 (antibody, V domains shown)
VH: B3 VH
VL: B6 VL with S30G, G92D, S93I, F94Y
B18: ADI-29421 (antibody, V domains shown)
VH: B3 VH
VL: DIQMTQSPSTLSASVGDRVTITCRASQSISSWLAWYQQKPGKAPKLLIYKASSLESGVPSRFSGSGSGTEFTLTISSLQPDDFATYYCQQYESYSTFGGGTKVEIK
B19: ADI-29425 (antibody, V domains shown)
VH: B3 VH
VL: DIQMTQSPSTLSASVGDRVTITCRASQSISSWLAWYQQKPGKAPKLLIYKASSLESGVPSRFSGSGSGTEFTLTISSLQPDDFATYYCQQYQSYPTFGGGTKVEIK
B20: ADI-29419 (antibody, V domains shown)
VH: B3 VH
VL: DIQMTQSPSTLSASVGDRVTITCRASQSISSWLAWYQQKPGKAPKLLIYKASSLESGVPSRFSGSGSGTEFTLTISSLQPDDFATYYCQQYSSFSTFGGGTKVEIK
B21: ADI-27740 (antibody, V domains shown)
VH: B3 VH
VL: B6 VL with S30G, G92H, P95Y
notes: also called A40

The binders below were run against T1, human recombinant NKG2D-Fc (assay: ELISA on coated NKG2D-Fc;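 further: titrated NKG2D binders added to plates coated with human, mouse or cynomolgus NKG2D ectodomain–human IgG1 Fc fusions, detected by HRP anti-human kappa antibody with TMB, absorbance at 450 nm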).
From the text: (§1) The nucleic acid sequences of human, mouse or cynomolgus NKG2D ectodomains were fused with nucleic acid sequences encoding human IgG1 Fc domains and introduced into mammalian cells to be expressed. After purification, NKG2D-Fc fusion proteins were adsorbed to wells of microplates. After blocking the wells with bovine serum albumin to prevent non-specific binding, NKG2D-binding domains were titrated and added to the wells pre-adsorbed with NKG2D-Fc fusion proteins. Primary antibody binding was detected using a secondary antibody which was conjugated to horseradish peroxidase and specifically recognizes a human kappa light chain to avoid Fc cross-reactivity. 3,3′,5,5′-Tetramethylbenzidine (TMB), a substrate for horseradish peroxidase, was added to the wells to visualize the binding signal, whose absorbance was measured at 450 nm and corrected at 540 nM.

Binder	binding result
B1	binds
B2	binds
B3	binds
B4	binds
B5	binds
B6	binds
B7	binds
B8	binds
B9	binds
B10	binds
B11	binds
B12	binds
B13	binds
B14	binds
B15	binds
B16	binds
B17	binds
B18	binds
B19	binds
B20	binds
B21	binds

Each binder was assayed against T2, mouse recombinant NKG2D-Fc (assay: ELISA on coated NKG2D-Fc;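 further: titrated NKG2D binders added to plates coated with human, mouse or cynomolgus NKG2D ectodomain–human IgG1 Fc fusions, detected by HRP anti-human kappa antibody with TMB, absorbance at 450 nm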).
From the text: as §1

Binder	binding result
B1	binds
B2	binds
B3	binds
B4	binds
B5	binds
B6	binds
B7	binds
B8	binds
B9	binds
B10	binds
B11	binds
B12	binds
B13	binds
B14	binds
B15	binds
B16	binds
B17	binds
B18	binds
B19	binds
B20	binds
B21	binds

Each binder was assayed against T3, cynomolgus recombinant NKG2D-Fc (assay: ELISA on coated NKG2D-Fc;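 further: titrated NKG2D binders added to plates coated with human, mouse or cynomolgus NKG2D ectodomain–human IgG1 Fc fusions, detected by HRP anti-human kappa antibody with TMB, absorbance at 450 nm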).
From the text: as §1

Binder	binding result
B1	binds
B3	binds
B4	binds
B5	binds
B6	binds
B7	binds
B8	binds
B9	binds
B10	binds
B11	binds
B12	binds
B13	binds
B14	binds
B15	binds
B16	binds
B17	binds
B18	binds
B19	binds
B20	binds
B21	binds
